B1: unmodified (i.e., without ABD) PCSK9 adnectin (designed binder)
chain: VSDVPRDLEVVAATPTSLLISWVPPSDDYGYYRITYGETGGNSPVQEFTVPIGKGTATISGLKPGVDYTITVYAVEFPWPHAGYYHRPISINYRT
notes: also called Enhancer method: None
B2: PCSK9 adnectin-ABD fusion protein (PCSK9 adnectin-(GS)3-ABD-His6) (designed binder)
chain: MGVSDVPRDLEVVAATPTSLLISWVPPSDDYGYYRITYGETGGNSPVQEFTVPIGKGTATISGLKPGVDYTITVYAVEFPWPHAGYYHRPISINYRTGSGSGSQHDEAVDANSLAEAKVLANRELDKYGVSDYYKNLINNAKTVEGVKALIDEILAALPHHHHHH
notes: Expressed in E. coli; also called PCSK9 Adn-(GS)3-ABD; 2013_E01-(GS)3-ABD (anti-PCSK9)
B3: ABD-(GS)3-C7FL-His6 (anti-VEGFR2 adnectin linked to ABD at its N-terminus) (designed binder)
chain: MGQHDEAVDANSLAEAKVLANRELDKYGVSDYYKNLINNAKTVEGVKALIDEILAALPGSGSGSVSDVPRDLEVVAATPTSLLISWRHPHFPTRYYRITYGETGGNSPVQEFTVPLQPPTATISGLKPGVDYTITVYAVTDGRNGRLLSIPISINYRTGSGSHHHHHH
notes: also called ABD-C7FL; ATI-0001087

Legend:
[1] = target: recombinant human PCSK9 expressed in baculovirus (human, UniProt Q8NBP7 31-692, limits assumed); experiment: PCSK9:EGFA FRET competition assay (inhibition of PCSK9 binding to biotinylated EGFA peptide)
Text: A fluorescence resonance energy transfer (FRET)-based assay was developed to determine the binding affinity and potency of PCSK9-binding adnectins. It was adapted from the general method described previously by Maio et al. (Miao, B. et al., Meth. Enzymol., 357:180-188 (2002); see also WO 2011/130354). The PCSK9:EGFA FRET assay measures the inhibition of PCSK9 binding to the LDLR epidermal growth factor precursor homology domain (EGFA domain), using recombinant human PCSK9 expressed in baculovirus and a synthetic 40-mer EGFA peptide (biotinylated). […] This assay uses a PCSK9 C-terminal domain binding mAb (mAb 4H5) labeled with Eu-chelate to provide FRET interaction with biotinylated EGFA through the streptavidin/allophycocyanin fluorophore complex. […] Thus, the biological activity of PCSK9 adnectin linked to ABD is at least as good as that of the unmodified PCSK9 adnectin.

[2] = target: T1, human serum albumin (human, UniProt P02768 25-609); experiment: SPR, affinity to HSA
T1 construct: also called HSA; HuSA

[3] = target: sol VEGFR2; experiment: SPR, VEGFR2 immobilized on chip, ABD-(GS)3-C7FL-His6 (0.02 nM-300 nM) as analyte
[4] = target: VEGFR2-Fc; experiment: as above
[5] = target: Cynomolgus monkey serum albumin (given as RhSA in Table 3) (Cynomolgus monkey; RhSA (table)); experiment: SPR, serum albumin immobilized on chip, ABD-(GS)3-C7FL-His6 (0.02 nM-300 nM) as analyte
Procedure: (§1) The binding affinity of ABD-(GS)3-C7FL-His6 to human, mouse and Cynomolgus monkey serum albumin was also measured. In an SPR experiment, the serum albumins were immobilized on chip, and ABD-(GS)3-C7FL-His6 (0.02 nM-300 nM) was flowed as analyte.

[6] = target: T1, human serum albumin; experiment: as above
Procedure: as §1

[7] = target: T2, mouse serum albumin (mouse, UniProt P07724 25-608); experiment: as above
T2 construct: also called MuSA
Procedure: as §1

Row | Binder | EC50 [1] | Kd [2] | Kd [3] | koff [3] | kon [3] | Kd [4] | koff [4] | kon [4] | Kd [5] | koff [5] | kon [5] | Kd [6] | koff [6] | kon [6] | Kd [7] | koff [7] | kon [7]
1 | B1 | 2.6 nM | – | – | – | – | – | – | – | – | – | – | – | – | – | – | – | –
2 | B2 | 0.3 nM | 12.4 nM | – | – | – | – | – | – | – | – | – | – | – | – | – | – | –
3 | B3 | – | 1.15 nM | 3.18 nM | 0.000261 s⁻¹ | 82000 M⁻¹ s⁻¹ | 3.31 nM | 0.000163 s⁻¹ | 49300 M⁻¹ s⁻¹ | 1.82 nM | 0.000826 s⁻¹ | 455000 M⁻¹ s⁻¹ | 1.15 nM | 0.000505 s⁻¹ | 439000 M⁻¹ s⁻¹ | 1 nM | 0.00033 s⁻¹ | 331000 M⁻¹ s⁻¹
